Source: patent US20220289837A1, “Cystic Fibrosis Transmembrane Conductance Regulator Stabilizing Agents” (VIB VZW, priority 2019, published 2022)

What was measured:
wt-CFTR = wt-CFTR (Homo sapiens, UniProt P13569); assay: Flow cytometry on permeabilized BHK-21 cells overexpressing wt-CFTR; type: cell-based; design: expressed in transfected cells; details: compared to negative control nanobody
Method: Parental BHK-21 cells (ATCC; CCL-10) and cells stably overexpressing human wt-CFTR^[43,44,47] or 2PT-F508del-CFTR, as described above, were permeabilized with 0.01% n-Dodecyl-β-D-Maltopyranoside β-DDM—Inalco) at least for 2 h on ice. In the meantime, cells were incubated with 50 μg/ml nanobodies and DRAQ7 (0.3 μM—Biostatus) to monitor the permeabilization state. Nanobody binding was detected by using His-tag specific antibody (Invitrogen, catalogue number MA1-135, 1 μg/ml) or Myc-tag specific antibody (Invitrogen, catalogue number 13-2500, 2 μg/ml) and then anti-mouse-Alexa Fluor 488 (Invitrogen, catalogue number A11001, 1.3 μg/ml) at least for 30 min on ice. Cells were washed one time between each step by centrifugation (200×g for 5 min at 4° C.). All incubations (100 μl) and washes (1.5 ml) were performed in PBS with 6% fetal bovine serum (FBS) and 0.01%13-DDM on ice. Cells fluorescence was measured with Gallios Flow Cytometer (Beckman Coulter). Data were analyzed with Kaluza software.

2PT-NBD1-RE = assay: NBD1 ELISA dose-response, binding to 2PT-NBD1-RE; design: species or system human; details: for binding to 2PT-NBD1-RE: construct containing the regulatory extension
2PT-NBD1-RE, sequence (P13569 387-678 S492P/A534P/I539T): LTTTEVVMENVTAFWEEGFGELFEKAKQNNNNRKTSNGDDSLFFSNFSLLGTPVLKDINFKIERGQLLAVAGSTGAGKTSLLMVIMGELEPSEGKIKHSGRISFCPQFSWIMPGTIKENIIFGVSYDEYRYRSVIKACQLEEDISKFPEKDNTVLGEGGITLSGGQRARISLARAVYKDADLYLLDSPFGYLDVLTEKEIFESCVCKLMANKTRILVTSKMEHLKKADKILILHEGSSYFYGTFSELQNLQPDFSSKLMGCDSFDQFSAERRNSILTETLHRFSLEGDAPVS
Source text: Human ΔRI-NBD1 (residues 387-646, A405-436; SEQ ID NO:59) construct was obtained from Arizona State University Plasmid Repository (clone id: 287374), 2PT-NBD1 mutants (residues 387-646 containing the mutations S492P, A534P, I539T; SEQ ID NO:58), 2PT-NBD1-RE (2PT-NBD1 with residues 387-678) were constructed using WT-NBD1 construct from ASU (clone id: 287401). Mutations were introduced by PCR using PfuUltra high-fidelity DNA polymerase from Agilent (catalogue number: 600382) and sequences were confirmed by automated DNA sequencing (UNC-CH Genome Analysis Facility). Proteins were expressed as N-terminal, His6-SUMO fusion proteins in Escherichia coli (BL21(DE3) pLysS cells, Millipore) as described in [5,11] with the following modifications. Cells were lysed using a French press and recombinant proteins were purified by nickel ion affinity chromatography (HisTrap HP, 1 ml—GE Healthcare). The His6-SUMO tag was removed using Ulp1 protease at 1/100 weight/weight ratio during 20 min on ice. […] Protein concentration was determined using Coomassie Plus (Bradford) Assay Kit (Thermo Scientific).
(§1) For dose-response assays, Nunc MaxiSorp 96-well plates (ThermoScientific), were coated with 5 μg/ml NeutrAvidin Biotin-Binding protein (ThermoScientific) overnight at 4° C. and blocked 2 h at room temperature (RT) with 2% milk in phosphate-buffered saline (PBS). Each new reagent addition was preceded by three washes with 200 μl of NBD1 buffer (20 mM HEPES pH 7.5, 150 mM NaCl, and 10% (w/v) glycerol, 10% (w/v) ethylene glycol, 2 mM ATP, 3 mM MgCl2). Then, biotinylated purified NBD1 proteins at 5 μg/ml were immobilized 30 min at RT followed by 1 h RT incubation with 100 μl various concentrations (0-20 μg/ml) of purified nanobodies. Signal detection was followed using His-tag specific antibody (Invitrogen, catalogue number: MA1-135, 1:3000 dilution) to detect the nanobodies and secondary antibody anti-mouse coupled to horse radish peroxidase (HRP) (Millipore, catalogue number: AP308P, 1:5000 dilution). 50 μl of 1-Step UltraTMB-ELISA (ThermoScientific) was used as a substrate for the peroxidase and intensity of the reaction was proportional to absorbance measured at 450 nm with SynergyMx (BioTek) after addition of 50 μl H2SO4 at 1M.

F508del-2PT-NBD1 = biological target: T1, F508del-2PT-NBD1 (Homo sapiens, UniProt P13569, A534P/DEL508-508/I539T/S492P/V470M); assay: NBD1 ELISA dose-response, nanobody binding to immobilized F508del-2PT-NBD1; details: for effect of F508del mutation on binding: F508del-2PT-NBD1 versus 2PT-NBD1
T1 construct: His6-SUMO (N, cleaved yes); made in house; host or cells: Escherichia coli BL21(DE3) pLysS
T1 sequence (P13569 with tags, fused parts or gaps V470M/S492P/DEL508-508/A534P/I539T limits assumed): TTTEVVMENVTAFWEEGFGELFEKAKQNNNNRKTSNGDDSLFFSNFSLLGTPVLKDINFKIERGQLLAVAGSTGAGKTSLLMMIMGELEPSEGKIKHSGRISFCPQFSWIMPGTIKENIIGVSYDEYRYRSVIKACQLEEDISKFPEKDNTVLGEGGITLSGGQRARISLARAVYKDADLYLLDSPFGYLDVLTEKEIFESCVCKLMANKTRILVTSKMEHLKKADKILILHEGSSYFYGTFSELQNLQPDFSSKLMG
Method: as §1
(§2) Affinity constants (KD) and thermodynamic parameters from ITC experiments were determined using one-site binding model with MicroCal Origin 7.0 software (Origin Lab Corp.). Dose response ELISA curves of each Nb binding to either isolated NBD1 or purified FL-CFTR were fitted using the sigmoidal dose-response equation from GraphPad Prism 3. DSC data were analyzed with the MicroCal Origin 7.0 software (Origin Lab Corp.), from which the unfolding temperature (Tm) was obtained.

[1] = biological target: T2, purified human CFTR (wt-CFTR) (Homo sapiens, UniProt P13569); assay: Full-length CFTR ELISA; type: binding; details: for binding of purified FL-CFTR: nanobodies immobilized, purified FL-CFTR titrated; for Bmax: immobilized CFTR, nanobodies titrated
T2 construct: His10-SUMO* (N); FLAG; EGFP (C); made in house; host or cells: HEK 293 cell line D165
T2 sequence (P13569 whole entry): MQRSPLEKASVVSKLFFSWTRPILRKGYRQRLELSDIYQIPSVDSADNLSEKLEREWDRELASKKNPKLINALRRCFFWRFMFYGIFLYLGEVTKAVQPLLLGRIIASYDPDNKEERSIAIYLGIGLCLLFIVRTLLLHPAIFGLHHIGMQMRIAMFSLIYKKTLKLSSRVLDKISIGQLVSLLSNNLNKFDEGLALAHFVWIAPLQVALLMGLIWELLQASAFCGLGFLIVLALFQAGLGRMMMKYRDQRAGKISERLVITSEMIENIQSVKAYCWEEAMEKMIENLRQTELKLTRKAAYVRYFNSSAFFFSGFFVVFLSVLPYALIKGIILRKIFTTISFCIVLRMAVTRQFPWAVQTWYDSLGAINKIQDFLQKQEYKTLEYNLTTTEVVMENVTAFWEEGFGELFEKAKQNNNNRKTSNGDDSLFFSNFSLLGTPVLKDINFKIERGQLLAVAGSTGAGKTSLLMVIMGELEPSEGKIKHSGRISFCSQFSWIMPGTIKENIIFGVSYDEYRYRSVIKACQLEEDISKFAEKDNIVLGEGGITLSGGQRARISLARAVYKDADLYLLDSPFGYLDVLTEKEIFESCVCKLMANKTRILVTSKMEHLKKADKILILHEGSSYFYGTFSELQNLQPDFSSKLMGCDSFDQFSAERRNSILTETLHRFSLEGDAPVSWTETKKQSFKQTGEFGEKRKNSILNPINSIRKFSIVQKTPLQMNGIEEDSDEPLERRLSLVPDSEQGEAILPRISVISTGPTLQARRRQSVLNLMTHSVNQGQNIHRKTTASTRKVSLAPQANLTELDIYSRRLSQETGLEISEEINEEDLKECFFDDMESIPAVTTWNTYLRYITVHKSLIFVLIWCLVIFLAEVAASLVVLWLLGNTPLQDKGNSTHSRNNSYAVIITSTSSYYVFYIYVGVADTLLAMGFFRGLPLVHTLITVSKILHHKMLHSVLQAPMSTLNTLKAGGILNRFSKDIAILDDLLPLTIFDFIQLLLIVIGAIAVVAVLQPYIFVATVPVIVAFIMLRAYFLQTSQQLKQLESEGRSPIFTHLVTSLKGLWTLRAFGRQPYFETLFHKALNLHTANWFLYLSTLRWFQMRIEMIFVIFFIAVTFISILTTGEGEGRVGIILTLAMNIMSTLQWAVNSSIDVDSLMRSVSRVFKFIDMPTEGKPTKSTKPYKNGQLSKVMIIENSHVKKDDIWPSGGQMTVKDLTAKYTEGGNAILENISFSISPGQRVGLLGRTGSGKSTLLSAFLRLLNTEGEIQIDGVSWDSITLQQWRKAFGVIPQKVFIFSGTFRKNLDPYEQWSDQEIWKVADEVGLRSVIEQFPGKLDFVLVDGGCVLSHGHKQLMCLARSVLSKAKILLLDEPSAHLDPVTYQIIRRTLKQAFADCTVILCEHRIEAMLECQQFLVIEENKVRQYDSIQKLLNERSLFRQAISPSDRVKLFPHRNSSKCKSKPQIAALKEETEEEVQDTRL
Method: Strep-Tactin XT coated microplate (iba Life Science) was coated overnight at 4° C. with Twin-Strep-tagged nanobodies (5 μg/ml). Plate was blocked with 4% milk for 2 h at RT. Then different concentrations of CFTR (10^−10 to 10^−8 M) were incubated for 2 h at 4° C. CFTR binding was detected with monoclonal antibodies L12B4, MM13, 154, 660, 570, 596 specific to CFTR obtained from the CFTR Antibody Distribution Program (http://cftrantibodies.web.unc.edu/available-antibodies)46 and then anti-mouse-HRP antibody (Millipore, catalogue number: AP308P, 0.5 μg/ml) for 1 h 30 min at 4° C. For Bmax determination Pierce Nickel Coated Plate (ThermoScientific) was coated 1 h at 4° C. with CFTR (8 μg/ml). Plate was blocked with 4% milk for 2 h at 4° C. Then different concentrations of nanobodies (10^−9 to 10^−6 M) were incubated for 2 h at 4° C. Nanobody binding was detected with Myc-tag specific antibody (Sigma, catalogue number: C3956, 0.5 μg/ml) and then anti-rabbit-HRP antibody (Cell Signaling, catalogue number: 7074S, 1:1000 dilution) for 1 h 30 min at 4° C. Between each step wells were washed 3 times by aspiration with 50 mM HEPES pH 7.5, 150 mM NaCl, 10% glycerol, 2 mM ATP, 2.5 mM MgCl2, 0.01% DMNG (Anatrace). Incubations were performed in the same buffer with 0.4% milk. Reaction was visualized by using 1-Step Ultra TMB-ELISA (ThermoScientific) and stopped with H2SO4 (500 mM final). Absorbance was measured at 450 nm using SynergyMx (BioTek).
as §2

wt-CFTR, sequence (P13569 whole entry): as above

B1: D12: NBD1-specific CFTR-stabilizing nanobody, SEQ ID NO:2, binds epitope 1 (protein)
VHH: QVQLQESGGGLVQAGSSLRLACAATGSIRSINNMGWYRQAPGKQRGMVAIITRVGNTDYADSVKGRFTISRDNAKNTVYLQMNSLKPEDTATYYCHAEITEQSRPFYLTDDYWGQGTQVTVSS
modifications: D12 Nanobody amino acid sequence
wt-CFTR
  labelling of BHK-21 cells overexpressing wt-CFTR: increased labelling
2PT-NBD1-RE
  apparent EC50 on 2PT-NBD1-RE compared to 2PT-NBD1: decrease in apparent EC50
  binding to 2PT-NBD1-RE: high-affinity binding
F508del-2PT-NBD1
  effect of F508del mutation on binding: not affected

B2: T2a: NBD1-specific CFTR-stabilizing nanobody, SEQ ID NO:3, binds epitope 1 (protein)
VHH: QVQLQESGGGLVQAGGSLRLSCAASGSIFRIDAMGWYRQAPGKQRELVAHSTSGGSTDYADSVKGRFTISRDNAKNTVYLQMNSLKPEDTAVYYCNADVRTRWYASNNYWGQGTQVTVSS
modifications: T2a Nanobody amino acid sequence
[1]
  binding of purified FL-CFTR: bind with high affinity
wt-CFTR
  labelling of BHK-21 cells overexpressing wt-CFTR: increased labelling
2PT-NBD1-RE
  apparent EC50 on 2PT-NBD1-RE compared to 2PT-NBD1: decrease in apparent EC50
  binding to 2PT-NBD1-RE: high-affinity binding
F508del-2PT-NBD1
  effect of F508del mutation on binding: not affected

B3: T8: nanobody, SEQ ID NO:7, binds epitope 2 including F508, stabilizes WT CFTR but not F508del (protein)
VHH: QVQLQESGGGLVQPGGSLRLSCAASGSTSSINAMGWYRQAPGKQREPVAISSSGGDTRYAEPVKGRFTISRDNAQNKVYLQMNSLKPEDTAVYYCWLNWGRTSVNSWGQGTQVTVSS
modifications: T8 Nanobody amino acid sequence
[1]
  Bmax: ~30 % of T2a maximum signal
  binding of purified FL-CFTR: bind with high affinity
wt-CFTR
  labelling of BHK-21 cells overexpressing wt-CFTR: increased labelling
F508del-2PT-NBD1
  effect of F508del mutation on binding: drastically affected

B4: T27: NBD1-specific CFTR-stabilizing nanobody, SEQ ID NO:4, binds epitope 1 (protein)
VHH: QVQLQESGGGLEQPGGSLRLSCATSGVIFGINAMGWYRQAPGKQRELVATFTSGGSTNYADFVEGRFTISRDNAKNTVYLQMNGLRPEDTAVYYCHATVVVSRYGLTYDYWGQGTQVTVSS
modifications: T27 Nanobody amino acid sequence
wt-CFTR
  labelling of BHK-21 cells overexpressing wt-CFTR: increased labelling
2PT-NBD1-RE
  apparent EC50 on 2PT-NBD1-RE compared to 2PT-NBD1: decrease in apparent EC50
  binding to 2PT-NBD1-RE: high-affinity binding
F508del-2PT-NBD1
  effect of F508del mutation on binding: not affected

B5: G3a: non-stabilizing nanobody, SEQ ID NO:50, recognizes the structurally diverse region of NBD1 (protein)
VHH: QVQLQESGGGLVQAGGSLRLSCTASGRAFSWYVMGWFRQAPGKEREFVATVSGNGSRRDYADSVKGRFTISRDNAKNTVYLQMNSLKPEDTAVYYCAASSTYYYTDPEKYDYWGQGTQVTVSS
modifications: G3a Nanobody
[1]
  Bmax: about 50 % of T2a maximum signal
  binding of purified FL-CFTR: bind with high affinity
wt-CFTR
  labelling of BHK-21 cells overexpressing wt-CFTR: increased labelling
F508del-2PT-NBD1; immobilized F508del-2PT-NBD1
  EC50 of binding to F508del-2PT-NBD1: weaker binding potency
